From publication PMC3173486

Key:
[1] = biological target: HA of A/swine/Netherlands/1/87 (H1N1) (influenza A virus A/swine/Netherlands/1/87 (H1N1))
[2] = biological target: HA of human-derived H3N2 strains
[3] = biological target: HA of the 2009 pandemic H1N1 strains, California/4/09 and Netherlands/602/09
[4] = biological target: HA of all influenza A/H1N1 viruses tested with RpSP-D multimers and trimers

## RpSP-D trimers (from UniProt Q9N1X4 21-378) (natural protein)
[1]
  HI assay: minimal inhibitory concentration of RpSP-D trimers; not inhibited: > 1600 ng/100 µl

B1: recombinant porcine SP-D, Q9N1X4 21-378 (natural protein)
chain: AEMKTYSQRAVANACALVMCSPMENGLPGRDGRDGREGPRGEKGDPGLPGAVGRAGMPGLAGPVGPKGDNGSTGEPGAKGDIGPCGPPGPPGIPGPAGKEGPSGQQGNIGPPGTPGPKGETGPKGEVGALGMQGSTGARGPAGLKGERGAPGERGAPGSAGAAGPAGATGPQGPSGARGPPGLKGDRGPPGERGAKGESGLPGITALRQQVETLQGQVQRLQKAFSQYKKVELFPNGRGVGEKIFKTGGFEKTFQDAQQVCTQAGGQMASPRSETENEALSQLVTAQNKAAFLSMTDIKTEGNFTYPTGEPLVYANWAPGEPNNNGGSSGAENCVEIFPNGKWNDKACGELRLVICEF
[2]
  HI assay: minimal inhibitory concentration of RpSP-D: 11 ng/100 µl
HA of swine H3N2 viruses
  HI assay: minimal inhibitory concentration of RpSP-D: 51 ng/100 µl
HA of avian H3N2 viruses
  HI assay: minimal inhibitory concentration of RpSP-D: 14.6 ng/100 µl
[3]
  HI assay: average inhibitory concentration of RpSP-D: 304 ng/100 µl

B2: RpSP-D multimers (natural protein)
chain: AEMKTYSQRAVANACALVMCSPMENGLPGRDGRDGREGPRGEKGDPGLPGAVGRAGMPGLAGPVGPKGDNGSTGEPGAKGDIGPCGPPGPPGIPGPAGKEGPSGQQGNIGPPGTPGPKGETGPKGEVGALGMQGSTGARGPAGLKGERGAPGERGAPGSAGAAGPAGATGPQGPSGARGPPGLKGDRGPPGERGAKGESGLPGITALRQQVETLQGQVQRLQKAFSQYKKVELFPNGRGVGEKIFKTGGFEKTFQDAQQVCTQAGGQMASPRSETENEALSQLVTAQNKAAFLSMTDIKTEGNFTYPTGEPLVYANWAPGEPNNNGGSSGAENCVEIFPNGKWNDKACGELRLVICEF
[4]
  HI assay: average minimal inhibitory concentration of RpSP-D multimers: 39.8 ng/100 µl

B3: RpSP-D trimers (natural protein)
chain: AEMKTYSQRAVANACALVMCSPMENGLPGRDGRDGREGPRGEKGDPGLPGAVGRAGMPGLAGPVGPKGDNGSTGEPGAKGDIGPCGPPGPPGIPGPAGKEGPSGQQGNIGPPGTPGPKGETGPKGEVGALGMQGSTGARGPAGLKGERGAPGERGAPGSAGAAGPAGATGPQGPSGARGPPGLKGDRGPPGERGAKGESGLPGITALRQQVETLQGQVQRLQKAFSQYKKVELFPNGRGVGEKIFKTGGFEKTFQDAQQVCTQAGGQMASPRSETENEALSQLVTAQNKAAFLSMTDIKTEGNFTYPTGEPLVYANWAPGEPNNNGGSSGAENCVEIFPNGKWNDKACGELRLVICEF
[4]
  HI assay: average minimal inhibitory concentration of RpSP-D trimers: 602 ng/100 µl

B4: recombinant human SP-D, P35247 21-375 (natural protein)
chain: AEMKTYSHRTMPSACTLVMCSSVESGLPGRDGRDGREGPRGEKGDPGLPGAAGQAGMPGQAGPVGPKGDNGSVGEPGPKGDTGPSGPPGPPGVPGPAGREGPLGKQGNIGPQGKPGPKGEAGPKGEVGAPGMQGSAGARGLAGPKGERGVPGERGVPGNTGAAGSAGAMGPQGSPGARGPPGLKGDKGIPGDKGAKGESGLPDVASLRQQVEALQGQVQHLQAAFSQYKKVELFPNGQSVGEKIFKTAGFVKPFTEAQLLCTQAGGQLASPRSAAENAALQQLVVAKNEAAFLSMTDSKTEGKFTYPTGESLVYSNWAPGEPNDDGGSEDCVEIFTNGKWNDRACGEKRLVVCEF
HA of most H1N1 viruses
  HI assay: minimal inhibitory concentration of RhSP-D; failed to inhibit: > 7500 ng/100 µl
